20 molecules from US20260265403A1 (TJ BIOPHARMA SHANGHAI, published 2026) can be followed below.

Substitutions are numbered along the chain they refer to.

This test addresses T1, human CD24 on cells (human, UniProt P25063 27-59).
T1 chain (looked up): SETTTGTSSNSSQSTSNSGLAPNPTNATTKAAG
Nature of the test: cell-based or functional assay.

B1: 67-H2E7, IgG1, Kappa (antibody, V domains shown)
VH: EVQLQQSGPELVKPGASVKISCKASGYEFTGYHMNWVKQSPEKSLEWIGEINPITSDKTFNQKFKAKATLTVDRSSTTAYMHLKSLTSEDSAVYYCARRDYDTSLDYWGQGTTLTVSS
VL: DVQITQSPSYLAASPGETITIYCRASKSISKYLAWYQEKPEKTNRLLIYAGSTLQSGIPSRFRGSGSGKDFTLTVSGLEPEDFAMYYCQQHNEYPLTFGAGTKLDLK
Consider B1, for which the “EC50 of Phagocytosis assay, IgG1, Kappa; HEK293-CD24” value (“EC50 … IgG1, Kappa; HEK293-CD24” below) was 0.42 µg/mL; the “EC50 of Phagocytosis assay, IgG1, Kappa; MCF-7” value (“EC50 … IgG1, Kappa; MCF-7” for short) came to 0.45 µg/mL; the “EC50 of Phagocytosis assay, IgG1, Kappa; NALM6” value (“EC50 … IgG1, Kappa; NALM6” below) is 0.22 µg/mL; the “EC50 of Phagocytosis assay, IgG1, Kappa; OVCAR3” value (shortened to “EC50 … IgG1, Kappa; OVCAR3”) came to 8.46 µg/mL.

B2: 67-H2E7, IgG4, Kappa (antibody, V domains shown)
VH: B1 VH
VL: B1 VL
For B2, the “EC50 of Phagocytosis assay, IgG4, Kappa; HEK293-CD24” value (from here on “EC50 … IgG4, Kappa; HEK293-CD24”) was determined as 0.51 µg/mL; the “EC50 of Phagocytosis assay, IgG4, Kappa; MCF-7” value (from here on “EC50 … IgG4, Kappa; MCF-7”) was 1.28 µg/mL; the “EC50 of Phagocytosis assay, IgG4, Kappa; NALM6” value (“EC50 … IgG4, Kappa; NALM6” below) is 0.68 µg/mL; the “EC50 of Phagocytosis assay, IgG4, Kappa; OVCAR3” value (shortened to “EC50 … IgG4, Kappa; OVCAR3”) was found to be 0.71 µg/mL.

B3: 85-D5A10 (4434), IgG1, Kappa (antibody, V domains shown)
VH: B1 VH with T77S, E89D, D102G
VL: B1 VL with N44I, L96I, D105E, K107I
As to B3, the “EC50 … IgG1, Kappa; HEK293-CD24” value was found to be 6.76 µg/mL; the “EC50 … IgG1, Kappa; MCF-7” value stood at 0.42 µg/mL; the “EC50 … IgG1, Kappa; NALM6” value was 0.32 µg/mL; the “EC50 … IgG1, Kappa; OVCAR3” value was found to be 0.13 µg/mL.

B4: 79-E3H3, IgG4, Kappa (antibody, V domains shown)
VH: B1 VH with T77S
VL: B1 VL with D105E
As for B4, the “EC50 … IgG4, Kappa; HEK293-CD24” value was 0.58 µg/mL; the “EC50 … IgG4, Kappa; MCF-7” value is 1.42 µg/mL; the “EC50 … IgG4, Kappa; NALM6” value is 0.72 µg/mL; the “EC50 … IgG4, Kappa; OVCAR3” value was found to be 0.42 µg/mL.

B5: 79-E3H3, IgG1, Kappa (antibody, V domains shown)
VH: B1 VH with T77S
VL: B1 VL with D105E
As to B5, the “EC50 … IgG1, Kappa; HEK293-CD24” value turned out to be 0.19 µg/mL; the “EC50 … IgG1, Kappa; MCF-7” value worked out at 0.52 µg/mL; the “EC50 … IgG1, Kappa; NALM6” value was 0.49 µg/mL; the “EC50 … IgG1, Kappa; OVCAR3” value amounted to 0.44 µg/mL.

B6: 89-E8C12 (4428), IgG1, Kappa (antibody, V domains shown)
VH: B1 VH with E28D, H33Y, V37M, D57H, K58N, T77S, D102G
VL: B1 VL with N44I, K69T, D105E
For the molecule B6, the “EC50 … IgG1, Kappa; HEK293-CD24” value amounted to 0.2 µg/mL; the “EC50 … IgG1, Kappa; MCF-7” value turned out to be 0.33 µg/mL; the “EC50 … IgG1, Kappa; NALM6” value was 0.23 µg/mL; the “EC50 … IgG1, Kappa; OVCAR3” value was determined as 0.15 µg/mL.

B7: 59-G9D7, IgG4, Kappa (antibody, V domains shown)
VH: QVQLQQPGADLVKPGASVKLSCKASGYTVTTYWMHWVRQRPGRGLEWIGRIDPNSGETKYSEKFKNKATLTVDRPSSTAYMQLSSLTFEDSAVYFCAIYYYLNNFLFDYWGQGTTLTVSS
VL: ENVLTQSPAIMSASPGEKVTMTCRASSSVSSSYLHWYQKKSGASPKLWIYSTSNLASGVPARFSGSGSGTSYSLTISSVEAEDAATYYCQQYSGYPLTFGAGTKLELK
Take B7: the “EC50 … IgG4, Kappa; HEK293-CD24” value amounted to 2.08 µg/mL; the “EC50 … IgG4, Kappa; MCF-7” value was 0.19 µg/mL; the “EC50 … IgG4, Kappa; NALM6” value stood at 6.57 µg/mL; the “EC50 … IgG4, Kappa; OVCAR3” value worked out at 1.26 µg/mL.

B8: 62-F7E9, IgG4, Kappa (antibody, V domains shown)
VH: QVQLQQPGAELVKPGASVKLSCKASGYTSTSYWLHWVKQRPGRGLEWIGRIDPNSGETKFNEKFKSQATLTVDKPSSTAYMQLNSLTSEDSAVYYCALYYYGSILFDYWGQGTTLTVSS
VL: B7 VL with A25T, S28I, V29I, S32G, Y33F, K39Q, Y95H
As to B8, the “EC50 … IgG4, Kappa; HEK293-CD24” value came out at 10.5 µg/mL; the “EC50 … IgG4, Kappa; MCF-7” value came out at 0.21 µg/mL; the “EC50 … IgG4, Kappa; NALM6” value was 0.01 µg/mL; the “EC50 … IgG4, Kappa; OVCAR3” value worked out at 1.41 µg/mL.

B9: 75-H8B9, IgG4, Kappa (antibody, V domains shown)
VH: EVNLEESGGGLVQPGGSRQLSCVASGLTFSKHWMNWVRQSPDKGLEWVAQIQLKSDNYAIRYVDSVKGRFTISRDDSENTVYLQMNNLRAEDTGIYYCTTGTDYWGQGTTLTVSS
VL: not shown
As to B9, the “EC50 … IgG4, Kappa; HEK293-CD24” value is 0.4 µg/mL; the “EC50 … IgG4, Kappa; MCF-7” value worked out at 0.76 µg/mL; the “EC50 … IgG4, Kappa; NALM6” value turned out to be 0.84 µg/mL; the “EC50 … IgG4, Kappa; OVCAR3” value came to 0.24 µg/mL.

B10: 75-H8B9, IgG1, Kappa (antibody, V domains shown)
VH: B9 VH
VL: not shown
Take B10: the “EC50 … IgG1, Kappa; HEK293-CD24” value is 0.08 µg/mL; the “EC50 … IgG1, Kappa; MCF-7” value was 0.44 µg/mL; the “EC50 … IgG1, Kappa; NALM6” value stood at 1.16 µg/mL; the “EC50 … IgG1, Kappa; OVCAR3” value amounted to 0.14 µg/mL.

B11: 70-F4E5, IgG4, Kappa (antibody, V domains shown)
VH: B9 VH
VL: not shown
In the case of B11, the “EC50 … IgG4, Kappa; HEK293-CD24” value amounted to 0.21 µg/mL; the “EC50 … IgG4, Kappa; MCF-7” value was determined as 0.84 µg/mL; the “EC50 … IgG4, Kappa; NALM6” value was 0.63 µg/mL; the “EC50 … IgG4, Kappa; OVCAR3” value was determined as 5.61 µg/mL.

B12: 70-F4E5, IgG1, Kappa (antibody, V domains shown)
VH: B9 VH
VL: not shown
As to B12, the “EC50 … IgG1, Kappa; HEK293-CD24” value was determined as 0.04 µg/mL; the “EC50 … IgG1, Kappa; MCF-7” value worked out at 0.7 µg/mL; the “EC50 … IgG1, Kappa; NALM6” value was 0.61 µg/mL; the “EC50 … IgG1, Kappa; OVCAR3” value turned out to be 0.15 µg/mL.

B13: 45-H1E4, IgG4, Kappa (antibody, V domains shown)
VH: QIQLVQSGPELKKPGETVKISCKASGYTFTTYGMSWMKQAPGKGLKWMGWINTYSGVPAYADDFKGRFAFSLDTSASTAYLQINNLKNEDTATYFCARSGYPWSPHSYSTDYWGQGISVTVSS
VL: DVLLTQTPLSLPVSLGDQASISCKSSQSIVHSNGNTYLEWYLQKPGQSPKRLIYKVSNRFSGVPDRFSGSGSGTDFTLKISRVEAEDLGVYYCFQGSHVPWTFGGGTKLEIK
With B13, the “EC50 … IgG4, Kappa; HEK293-CD24” value was 0.9 µg/mL; the “EC50 … IgG4, Kappa; MCF-7” value worked out at 7 µg/mL; the “EC50 … IgG4, Kappa; NALM6” value amounted to 5.36 µg/mL; the “EC50 … IgG4, Kappa; OVCAR3” value worked out at 3.35 µg/mL.

B14: 76-F8C6, IgG4, Kappa (antibody, V domains shown)
VH: EVKLEESGGGLVQPGGSMKLSCVASGFTFTNSWMNWVRQSPERGLDWVAQIQLKSDNYATRYVESVKGRFTISRDDSKNSVYLQMNNLRAEDTGIYYCTTGTDYWSQGTTLTVSS
VL: not shown
Take B14: the “EC50 … IgG4, Kappa; HEK293-CD24” value came out at 0.4 µg/mL; the “EC50 … IgG4, Kappa; MCF-7” value turned out to be 2.44 µg/mL; the “EC50 … IgG4, Kappa; NALM6” value is 1.62 µg/mL; the “EC50 … IgG4, Kappa; OVCAR3” value was determined as 0.27 µg/mL.

B15: 66-D1B10, IgG4, Kappa (antibody, V domains shown)
VH: B14 VH with K3R, L11F, F27L, T30P, S32H, D46A, K78E, N79S, S80T, S106G
VL: not shown
Consider B15, for which the “EC50 … IgG4, Kappa; HEK293-CD24” value stood at 3.09 µg/mL; the “EC50 … IgG4, Kappa; MCF-7” value turned out to be 2.26 µg/mL; the “EC50 … IgG4, Kappa; NALM6” value came out at 6.28 µg/mL; the “EC50 … IgG4, Kappa; OVCAR3” value was found to be 5.77 µg/mL.

B16: 80-F10A6, IgG1, Kappa (antibody, V domains shown)
VH: EVQLQQSGPVLVNPGASVKISCKASGYSFTGYYMNWVKQSPEKSLEWIGEVNPITGDTTYSQNFKAKTTLTVDRSSSTAYMQLKSLTSEDSAVYYCTRRDYGTSLDYWGQGTTLTVSS
VL: DVQITQSPSYLAASPGETITIHCRASKSISRYLAWYQEKPGKINTLLIYAGSTLHLGIPSRFSGSGSGTDFTLTISSLELEDFAMYYCQQHNEYPITFGAGTKLELK
Turning to B16, the “EC50 … IgG1, Kappa; HEK293-CD24” value was 0.39 µg/mL; the “EC50 … IgG1, Kappa; MCF-7” value worked out at 0.57 µg/mL; the “EC50 … IgG1, Kappa; NALM6” value came to 0.46 µg/mL; the “EC50 … IgG1, Kappa; OVCAR3” value stood at 2.23 µg/mL.

B17: 90-D11B6, IgG4, Kappa (antibody, V domains shown)
VH: EVQLQQSGPELVKPGASVRISCKASGYSFTGYYMNWVKQSPEKNLEWIGEINPITGGSTYNQKFVAKATLTVDRSSSTAYMQLKSLTSEDSAVYYCTRRDYDTSLDYWGQGTTLTVSS
VL: B16 VL with H22N, R31K, I43T, N44I, T45K, H55Q, L56S, S67Y, L80P, I96L
As to B17, the “EC50 … IgG4, Kappa; HEK293-CD24” value was determined as 2.78 µg/mL; the “EC50 … IgG4, Kappa; MCF-7” value came to 1.94 µg/mL; the “EC50 … IgG4, Kappa; NALM6” value was determined as 1.31 µg/mL; the “EC50 … IgG4, Kappa; OVCAR3” value was determined as 0.86 µg/mL.

B18: 90-D11B6, IgG1, Kappa (antibody, V domains shown)
VH: B17 VH
VL: B16 VL with H22N, R31K, I43T, N44I, T45K, H55Q, L56S, S67Y, L80P, I96L
Turning to B18, the “EC50 … IgG1, Kappa; HEK293-CD24” value is 1.31 µg/mL; the “EC50 … IgG1, Kappa; MCF-7” value was found to be 1 µg/mL; the “EC50 … IgG1, Kappa; NALM6” value worked out at 1.19 µg/mL; the “EC50 … IgG1, Kappa; OVCAR3” value is 0.59 µg/mL.

B19: 63-B10B9, IgG4, Kappa (antibody, V domains shown)
VH: B17 VH with R19K, N44S, S58T, V65R, R98K, T115I
VL: DVQITQSPSYLAAFPGETITINCRASKSIKKYLAWYQEKPGKTNNLLIYSGSTLQSGIPSRFSGSGTGTDFTLTISSLEPEDFAMYYCQQHNEYPLTFGAGTKLELK
With B19, the “EC50 … IgG4, Kappa; HEK293-CD24” value worked out at 1.14 µg/mL; the “EC50 … IgG4, Kappa; MCF-7” value was found to be 17.1 µg/mL; the “EC50 … IgG4, Kappa; NALM6” value worked out at 6.16 µg/mL; the “EC50 … IgG4, Kappa; OVCAR3” value came out at 9.85 µg/mL.

B20: 63-B10B9, IgG1, Kappa (antibody, V domains shown)
VH: B17 VH with R19K, N44S, S58T, V65R, R98K, T115I
VL: B19 VL
Consider B20, for which the “EC50 … IgG1, Kappa; HEK293-CD24” value is 7.02 µg/mL; the “EC50 … IgG1, Kappa; MCF-7” value came out at 1.06 µg/mL; the “EC50 … IgG1, Kappa; NALM6” value is 1.91 µg/mL; the “EC50 … IgG1, Kappa; OVCAR3” value was 0.56 µg/mL.
